Key:
[1] = substrate: O=C(O)C(=O)Cc1ccccc1; experiment: PPA decarboxylation; phenylacetaldehyde extracted and measured by GC-MS; format: biochemical, Rosa hybrid cultivar; settings: 1 mM TPP, 5 mM MgCl2, 0.1 M citrate pH 6.0, 40 °C
Text: PPA decarboxylation; phenylacetaldehyde extracted and measured by GC-MS on […] | the kcat/Km value of […] was higher for PPA than for pyruvic acid (PA)

purified protein = substrate: CC(=O)C(=O)O; experiment: purified protein; format: biochemical, Rosa hybrid cultivar; settings: 1 mM TPP, 5 mM MgCl2, 0.1 M citrate pH 6.0, 40 °C

B1: RyPPDC (Rosa hybrid cultivar) (protein)
chain: MEPSTLIGATPRPTSALLPVVPAAACSGTLGRHLARRLVEIGVHDVFSVPGDFNLTLLDHLIAEPELNLIGCCNELNAGYAADGYARARGVGACVVTFTVGGLSVLNAIAGAYSENLPVICIVGGPNSNDYGTNRILHHTIGLPDFTQELRCFQTVTCHQAVVSHLEDAHELIDTAISTALKESKPVYISISCNLPAIPHPTFGRDPVPFFIAPKVSNQIGLEAAVEATAAFLNKAVKPVLVGGPKLRVAKAQKAFVELADASGYPMAVMPSGKGLVPEHHPHFIGTYWGAVSTSFCGEIVESADAYVFVGPIFNDYSSVGYSLLIKKEKAIIVEPNRVTIGNGPSFGWVFMGDFLTALAKKLKKNSTGMENYCRIFVPPGIPLKAQKDEPLRVNVLFKHIQEIVTPNTAIISETGDSWFNCQKLRLPENCGYEFQMQYGSIGWSVGATLGYAQGAKDKRVIACIGDGSFQVTAQDISTMIRCGQNTIIFLINNGGYTIEVEIHDGPYNVIKNWDYTGLVDAIHNGEGKCWTTKVRTEEDLTEAIAKATGEHKDSLCFIEVFVHKDDTRKELLEWGSRVSAANSRPPNPQ
notes: recombinant, baculovirus-insect cell (HighFive) expression, purified by DEAE, Phenyl HP and Superdex 200; cDNA from rose petals
- Km [1]: 1.32 ± 0.06 mM
- kcat [1]: 0.0297 ± 0.00033 s⁻¹
- Km (purified protein): 4.70 ± 0.32 mM
- kcat (purified protein): 0.0215 ± 0.0005 s⁻¹

— PMC4735289, “Seasonal induction of alternative principal pathway for rose flower scent” (Scientific Reports, 2016)
